Experimental data as given in FireProtDB (doi:10.1021/bi00118a013).

B1: Guanyl-specific ribonuclease T1, P00651 (parent)
chain: MMYSKLLTLTTLLLPTALALPSLVERACDYTCGSNCYSSSDVSTAQAAGYQLHEDGETVGSNSYPHKYNNYEGFDFSVSSPYYEWPILSSGDVYSGGSPGADRVVFNENNQLAGVITHTGASGNNFVECT

Variants of: B1
Conditions: Aspergillus oryzae (strain ATCC 42149 / RIB 40), pH 7, Fluorescence, MOPS 30 mM, reversible: yes, structure 1RN1, whole UniProt chain shown

S38A
ddG of mutation (higher = less stable) (25 °C, Urea): 5.15 kJ/mol | denaturant m value (25 °C, Urea): 1.28 kcal/mol/M | denaturant midpoint (higher = more stable) (25 °C, Urea): 4.29 M | ddG of mutation (higher = less stable) (50.9 °C, Thermal): 4.52 kJ/mol | Tm (Thermal): 47.7 °C | change of melting temperature, mutant - wild type (higher = more stable) (Thermal): -3.2 °C | unfolding enthalpy (van 't Hoff) (Thermal): 414 kJ/mol

N35A
ddG of mutation (higher = less stable) (25 °C, Urea): 3.77 kJ/mol | denaturant m value (25 °C, Urea): 1.28 kcal/mol/M | denaturant midpoint (higher = more stable) (25 °C, Urea): 4.56 M | ddG of mutation (higher = less stable) (50.9 °C, Thermal): 2.97 kJ/mol | Tm (Thermal): 48.8 °C | change of melting temperature, mutant - wild type (higher = more stable) (Thermal): -2.1 °C | unfolding enthalpy (van 't Hoff) (Thermal): 423 kJ/mol

Y83F
ddG of mutation (higher = less stable) (25 °C, Urea): 2.09 kJ/mol | denaturant m value (25 °C, Urea): 1.29 kcal/mol/M | denaturant midpoint (higher = more stable) (25 °C, Urea): 4.88 M | ddG of mutation (higher = less stable) (50.9 °C, Thermal): 1.84 kJ/mol

Y94F
ddG of mutation (higher = less stable) (25 °C, Urea): 5.69 kJ/mol | denaturant m value (25 °C, Urea): 1.32 kcal/mol/M | denaturant midpoint (higher = more stable) (25 °C, Urea): 4.17 M | ddG of mutation (higher = less stable) (50.9 °C, Thermal): 5.65 kJ/mol | Tm (Thermal): 46.9 °C | change of melting temperature, mutant - wild type (higher = more stable) (Thermal): -4 °C | unfolding enthalpy (van 't Hoff) (Thermal): 372 kJ/mol

N70A
ddG of mutation (higher = less stable) (25 °C, Urea): 8.7 kJ/mol | denaturant m value (25 °C, Urea): 1.3 kcal/mol/M | denaturant midpoint (higher = more stable) (25 °C, Urea): 3.59 M

Y82F
ddG of mutation (higher = less stable) (25 °C, Urea): 3.26 kJ/mol | denaturant m value (25 °C, Urea): 1.26 kcal/mol/M | denaturant midpoint (higher = more stable) (25 °C, Urea): 4.65 M | ddG of mutation (higher = less stable) (50.9 °C, Thermal): 2.97 kJ/mol | Tm (Thermal): 48.8 °C | change of melting temperature, mutant - wild type (higher = more stable) (Thermal): -2.1 °C | unfolding enthalpy (van 't Hoff) (Thermal): 414 kJ/mol

S90A
ddG of mutation (higher = less stable) (25 °C, Urea): 6.02 kJ/mol | denaturant m value (25 °C, Urea): 1.38 kcal/mol/M | denaturant midpoint (higher = more stable) (25 °C, Urea): 4.11 M | ddG of mutation (higher = less stable) (50.9 °C, Thermal): 6.53 kJ/mol

S43A
ddG of mutation (higher = less stable) (50.9 °C, Thermal): -2.38 kJ/mol | Tm (Thermal): 52.6 °C | change of melting temperature, mutant - wild type (higher = more stable) (Thermal): 1.7 °C | unfolding enthalpy (van 't Hoff) (Thermal): 456 kJ/mol

N107A
ddG of mutation (higher = less stable) (25 °C, Urea): 12 kJ/mol | denaturant m value (25 °C, Urea): 1.44 kcal/mol/M | denaturant midpoint (higher = more stable) (25 °C, Urea): 2.92 M | ddG of mutation (higher = less stable) (50.9 °C, Thermal): 12.2 kJ/mol | Tm (Thermal): 42.3 °C | change of melting temperature, mutant - wild type (higher = more stable) (Thermal): -8.6 °C | unfolding enthalpy (van 't Hoff) (Thermal): 381 kJ/mol

Y68F
ddG of mutation (higher = less stable) (25 °C, Urea): -4.77 kJ/mol | denaturant m value (25 °C, Urea): 1.17 kcal/mol/M | denaturant midpoint (higher = more stable) (25 °C, Urea): 6.24 M | ddG of mutation (higher = less stable) (50.9 °C, Thermal): -4.81 kJ/mol | Tm (Thermal): 54.3 °C | change of melting temperature, mutant - wild type (higher = more stable) (Thermal): 3.4 °C | unfolding enthalpy (van 't Hoff) (Thermal): 444 kJ/mol

Y37F
ddG of mutation (higher = less stable) (25 °C, Urea): 8.83 kJ/mol | denaturant m value (25 °C, Urea): 1.27 kcal/mol/M | denaturant midpoint (higher = more stable) (25 °C, Urea): 3.56 M | ddG of mutation (higher = less stable) (50.9 °C, Thermal): 8.49 kJ/mol | Tm (Thermal): 44.9 °C | change of melting temperature, mutant - wild type (higher = more stable) (Thermal): -6 °C | unfolding enthalpy (van 't Hoff) (Thermal): 423 kJ/mol

N62A
ddG of mutation (higher = less stable) (25 °C, Urea): -0.126 kJ/mol | denaturant m value (25 °C, Urea): 1.31 kcal/mol/M | denaturant midpoint (higher = more stable) (25 °C, Urea): 5.31 M | ddG of mutation (higher = less stable) (50.9 °C, Thermal): 0 kJ/mol | Tm (Thermal): 50.9 °C | change of melting temperature, mutant - wild type (higher = more stable) (Thermal): 0 °C | unfolding enthalpy (van 't Hoff) (Thermal): 464 kJ/mol
